Assay results as given in paper PMC13458767, “C-terminal lysine residues localise NLRP10 at lipid droplets and govern NLRP10 oligomer formation” (EMBO Reports, 2026).

Legend:
[1] = molecular target: human NLRP10ΔHD2–tail (aa 4–482), MBP-tagged recombinant protein (human) (UniProt Q86W26); experiment: SEC-MALS; MBP-NLRP10 (4–482) at several concentrations; molecular weights determined; no methods told for the SEC-MALS
[2] = molecular target: the molecule itself; experiment: SEC; Superose 6 Increase 10/300 GL or Superdex 200 Increase 10/300 GL; 25 mM Tris pH 7.5, 300 mM NaCl, 5 mM ß-ME, 5% glycerol; peak 1 (void) and peak 2 collected

Question: “human NLRP10ΔHD2–tail (aa 4–482), MBP-tagged recombinant protein (from UniProt Q86W26 4-482) (domain or fragment)” was tested. Which stoichiometry N [1] did it give?
Answer: 2

B1: human NLRP10 (aa 4–655), MBP-tev-tagged recombinant protein (natural protein, UniProt Q86W26 4-655, looked up)
chain: AKARKPREALLWALSDLEENDFKKLKFYLRDMTLSEGQPPLARGELEGLIPVDLAELLISKYGEKEAVKVVLKGLKVMNLLELVDQLSHICLHDYREVYREHVRCLEEWQEAGVNGRYNQVLLVAKPSSESPESLACPFPEQELESVTVEALFDSGEKPSLAPSLVVLQGSAGTGKTTLARKMVLDWATGTLYPGRFDYVFYVSCKEVVLLLESKLEQLLFWCCGDNQAPVTEILRQPERLLFILDGFDELQRPFEEKLKKRGLSPKESLLHLLIRRHTLPTCSLLITTRPLALRNLEPLLKQARHVHILGFSEEERARYFSSYFTDEKQADRAFDIVQKNDILYKACQVPGICWVVCSWLQGQMERGKVVLETPRNSTDIFMAYVSTFLPPDDDGGCSELSRHRVLRSLCSLAAEGIQHQRFLFEEAELRKHNLDGPRLAAFLSSNDYQLGLAIKKFYSFRHISFQDFFHAMSYLVKEDQSRLGKESRREVQRLLEVKEQEGNDEMTLTMQFLLDISKKDSFSNLELKFCFRISPCLAQDLKHFKEQMESMKHNRTWDLEFSLYEAKIKNLVKGIQMNNVSFKIKHSNEKKSQSQNLFSVKSSLSHGPKEEQKCPSVHGQKEGKDNIAGTQKEASTGKGRGTEETPKNTYI
notes: MBP is followed by a tev site; no cleavage step is described in the methods; also called NLRP10 (4–655); wild-type NLRP10
Question: Does B1 bind [2]?
Answer: binds

B2: Walker A mutant human NLRP10 (aa 4–655 K179A), MBP-tev-tagged recombinant protein (natural protein, UniProt Q86W26 4-655, looked up)
chain: AKARKPREALLWALSDLEENDFKKLKFYLRDMTLSEGQPPLARGELEGLIPVDLAELLISKYGEKEAVKVVLKGLKVMNLLELVDQLSHICLHDYREVYREHVRCLEEWQEAGVNGRYNQVLLVAKPSSESPESLACPFPEQELESVTVEALFDSGEKPSLAPSLVVLQGSAGTGATTLARKMVLDWATGTLYPGRFDYVFYVSCKEVVLLLESKLEQLLFWCCGDNQAPVTEILRQPERLLFILDGFDELQRPFEEKLKKRGLSPKESLLHLLIRRHTLPTCSLLITTRPLALRNLEPLLKQARHVHILGFSEEERARYFSSYFTDEKQADRAFDIVQKNDILYKACQVPGICWVVCSWLQGQMERGKVVLETPRNSTDIFMAYVSTFLPPDDDGGCSELSRHRVLRSLCSLAAEGIQHQRFLFEEAELRKHNLDGPRLAAFLSSNDYQLGLAIKKFYSFRHISFQDFFHAMSYLVKEDQSRLGKESRREVQRLLEVKEQEGNDEMTLTMQFLLDISKKDSFSNLELKFCFRISPCLAQDLKHFKEQMESMKHNRTWDLEFSLYEAKIKNLVKGIQMNNVSFKIKHSNEKKSQSQNLFSVKSSLSHGPKEEQKCPSVHGQKEGKDNIAGTQKEASTGKGRGTEETPKNTYI
notes: NLRP10, human, residues 4-655, Walker A mutant K179A; MBP is followed by a tev site; no cleavage step is described in the methods; also called NLRP10 K179A; K179A mutant
Question: Does B2 bind [2]?
Answer: binds
